Tests used:
[1] = molecular target: T1, Coxsackievirus A6 (CVA6) A-particle (Coxsackievirus A6 strain TW-2007-00141); assay: SPR
T1 chain 1: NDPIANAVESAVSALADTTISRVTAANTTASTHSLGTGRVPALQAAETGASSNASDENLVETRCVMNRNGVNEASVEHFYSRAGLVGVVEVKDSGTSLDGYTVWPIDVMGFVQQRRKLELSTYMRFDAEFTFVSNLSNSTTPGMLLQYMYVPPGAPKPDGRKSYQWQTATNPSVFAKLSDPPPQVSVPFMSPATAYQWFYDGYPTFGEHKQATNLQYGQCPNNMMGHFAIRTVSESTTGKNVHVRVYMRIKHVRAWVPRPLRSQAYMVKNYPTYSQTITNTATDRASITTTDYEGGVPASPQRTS
T1 chain 2: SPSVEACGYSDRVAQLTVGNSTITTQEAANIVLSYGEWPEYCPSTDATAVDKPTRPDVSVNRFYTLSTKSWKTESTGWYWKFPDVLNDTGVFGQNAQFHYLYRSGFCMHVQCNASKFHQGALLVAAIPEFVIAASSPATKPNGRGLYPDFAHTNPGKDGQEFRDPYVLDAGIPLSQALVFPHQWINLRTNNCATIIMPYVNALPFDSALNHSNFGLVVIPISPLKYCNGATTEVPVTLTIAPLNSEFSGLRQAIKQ
T1 chain 3: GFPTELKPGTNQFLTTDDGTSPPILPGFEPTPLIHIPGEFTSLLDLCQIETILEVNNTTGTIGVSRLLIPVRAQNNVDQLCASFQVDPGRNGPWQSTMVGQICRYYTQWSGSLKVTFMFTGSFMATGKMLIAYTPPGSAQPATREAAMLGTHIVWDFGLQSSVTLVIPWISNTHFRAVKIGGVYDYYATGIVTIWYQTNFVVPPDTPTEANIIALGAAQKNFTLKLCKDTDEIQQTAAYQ

[2] = molecular target: T1, Coxsackievirus A6 (CVA6) A-particle; assay: SPR
[3] = molecular target: T1, Coxsackievirus A6 (CVA6) A-particle; assay: SPR
[4] = molecular target: T2, Coxsackievirus A6 (CVA6) procapsid (Coxsackievirus A6 strain TW-2007-00141); assay: ELISA
T2 chain 1: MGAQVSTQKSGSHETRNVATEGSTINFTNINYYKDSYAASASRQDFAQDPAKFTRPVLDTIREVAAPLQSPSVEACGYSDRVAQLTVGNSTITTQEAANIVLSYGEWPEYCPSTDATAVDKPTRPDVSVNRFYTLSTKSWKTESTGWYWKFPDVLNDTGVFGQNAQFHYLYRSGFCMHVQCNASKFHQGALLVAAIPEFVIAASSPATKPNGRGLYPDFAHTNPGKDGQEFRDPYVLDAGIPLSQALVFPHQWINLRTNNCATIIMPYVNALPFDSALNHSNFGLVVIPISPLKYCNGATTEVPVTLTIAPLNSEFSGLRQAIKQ
T2 chain 2: T1 chain 1
T2 chain 3: T1 chain 3

B1: neutralizing monoclonal antibody 1D5 (antibody, V domains shown)
VH: EVQLVESGGGLVKPGGSLKLSCAASGFAFSTYDMSWVRQTPEKRLELVAHISSGGGYIYYPDTVKGRFTISRDNAKNTLYLQMSSLKSEDTAMYYCTRQKGLYYGFDYWGQGTTLTVSS
VL: DIVMTQSHKFMSTSVGDRVSITCKASQDVNTAVAWYQQRPGQSPKLLIYSASYRYTGVPDRFTGSGSGTDFTFTISSVQAEDLAVYYCQQHYTTPHTFGGGTKLEIK
How did the Ka [1] turn out when B1 was run?
The Ka was 2.41e+08 M⁻¹.

What about the koff [2] of the same binder?
Its koff is 0.000634 s⁻¹.

What about the Kd [3] of the same binder?
Its Kd is 4.14 nM.

What about the EC50 [4] of the same binder?
The EC50 was 0.069 µg/mL.

Source: PMC5593947 (2017)
